Legend:
[1] = test system: T cell-dependent antibody responses (TDAR); assay: In vivo T cell-dependent antibody responses and germinal centers
[2] = test system: PBMC; assay: Induction of PBMC proliferation; format: cell-based
Description: (§1) mAb1 binds to human CD40 with high affinity (Kd of 0.3 nM).

[3] = test system: EBV infections; assay: Clinical kidney transplantation data; format: in vivo, human; settings: CNI-free therapy in kidney transplantation
[4] = 26-week chronic toxicity study in cynomolgus monkeys; format: in vivo; settings: for mean Cmax,ss: sc
Description: (§2) Inflammatory lesions in the kidneys and lungs of 2 animals at 50 mg/kg were noted, and in one of the two animals, lesions in the eyes and trachea were also noted. […] In view of these inflammatory findings, the No Observed Adverse Effect Level (NOAEL) for the 13-week toxicity study was set at 10 mg/kg. […] The NOAEL derived from the 26-week cynomolgus monkey study is considered the most relevant for supporting the clinical dosing regimen.
Adequate safety margin from preclinical toxicological studies: GLP toxicology studies to date have tested CFZ533 at (i) weekly s.c. dosing for 13 weeks at 10, 50, and 150 mg/kg (s.c. and i.v.) in rhesus monkeys, and (ii) weekly s.c. dosing for 26 weeks at 1, 50, and 150 mg/kg in cynomolgus monkeys.
In the 26-week toxicity study in cynomolgus monkey, at steady state, an average concentration of 8300 μg/mL (Cav,ss) was obtained after weekly dosing at 150 mg/kg (NOAEL).
The 10 mg/kg i.v. regimen was expected to provide, throughout the entire treatment period (placebo-controlled and open-label, see FIG. 3), sustained plasma concentrations above 40 μg/mL, to anticipate for higher CD40 expression in tx patients, and incomplete PD effects in target tissue due to loss of target saturation.

[5] = biological target: T1, CD40 (Macaca mulatta, UniProt A0ACM8QRX8); assay: KLH / tetanus toxoid immunization in rhesus monkeys; format: in vivo
T1 construct: CD40 occupancy by mAb1 at plasma concentrations >40 μg/mL; endogenous in cells; host or cells: rhesus monkeys (in vivo)
T1 sequence (A0ACM8QRX8 21-278): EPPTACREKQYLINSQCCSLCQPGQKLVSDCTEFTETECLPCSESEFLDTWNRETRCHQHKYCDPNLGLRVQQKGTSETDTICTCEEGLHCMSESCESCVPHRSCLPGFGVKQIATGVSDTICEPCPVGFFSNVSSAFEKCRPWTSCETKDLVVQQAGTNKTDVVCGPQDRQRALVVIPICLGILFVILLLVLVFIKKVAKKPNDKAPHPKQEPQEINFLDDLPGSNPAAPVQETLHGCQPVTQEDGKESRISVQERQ
Description: (§3) In a PK/PD study in cynomolgus monkeys, the inflection point (about 10 μg/mL) in the PK profiles was associated with a drop of CD40 saturation, as determined in an independent lymphocyte target saturation assay. As such this inflection point is viewed as a marker for the level of saturation of CD40, and an evidence for target engagement. […] Monkeys were immunized with KLH three times (the first was about 3 weeks prior to dosing, the second was 2 weeks after mAb1 administration, and the third was after complete wash-out of mAb1). […]

[6] = test system: monocyte-derived dendritic cells (DCs); assay: Cytokine production by monocyte-derived dendritic cells; format: cell-based
Description: as §1

[7] = in vivo
Description: as §2

[8] = in vivo; remark: listed apart in the source
[9] = test system: EBV-seronegative EBV-B cell/T cell co-cultures; assay: EBV-B cell/T cell co-culture, EBV-seronegative donors; format: cell-based, human
[10] = test system: platelet aggregation
[11] = test system: PBMC incubated with EBV supernatant; assay: EBV regression assay with PBMC; format: cell-based, human
Description: Buffy coats from six healthy volunteers (18-001 to 18-006) were received from Blutspendezentrum Bern. Peripheral blood mononuclear cells (PBMC) were isolated using LeucoSep tubes following manufacturer's instructions, counted with TC20 and adjusted in cell culture medium (Medium, buffers and reagents). All conditions (see Table 3-2) were run in five replicates in 96-well U-bottom plates and contained 2×10^5 cells/well. PBMC were incubated for 10-15 minutes at 37° C. before adding cell culture medium containing EBV-supernatant and transferrin (see Medium, buffers and reagents). […] Cell pellets were stained and analyzed by flow cytometry (FACS staining procedure).
In FIG. 1, the gating strategy is shown.

[12] = test system: CD40; design: species or system cynomolgus monkeys; settings: cynomolgus monkey, in vivo
Description: as §3

[13] = cynomolgus monkey, in vivo, 150 mg/kg
[14] = 10 μg/mL (priming only; priming and recall) and 50 μg/mL (recall only)
[15] = 14 days, CsA 0.1, 1 μM, Belatacept 10, 50 μg/mL, CFZ533, hIgG1 10-200 μg/mL, vs medium+EBV

Q: What does the source list for “CFZ533: fully human monoclonal Fc-silent, non-depleting anti-CD40 antibody (IgG1/K); heavy chain SEQ ID NO: 9, light chain SEQ ID NO: 10”?
A: established germinal centers (GCs) [1]: can disrupt; primary and secondary T cell-dependent antibody responses (TDAR) [1]: blocks; induction of PBMC proliferation [2]: does not induce; increased incidence of EBV infections [3]: not observed; average steady state plasma concentration with complete suppression of germinal centers in cortical B cell areas of lymph nodes ([4]; 1 mg/kg dose group): > 38 µg/mL; NOAEL ([4]; 26-week, cynomolgus): 150 mg/kg; adverse findings ([4]; cynomolgus monkey, in vivo): no adverse, mAb1-related findings; average concentration at steady state (Cav,ss) [4, 13]: 8300 µg/mL; systemic exposure (AUC, steady state) over a 1-month period [4, 13]: 232400 µg·days/mL; mean Cmax,ss ([4]; cynomolgus monkey, in vivo, 1 mg/kg): 44 µg/mL; mean Cmax,ss ([4]; cynomolgus monkey, in vivo, 50 mg/kg): 3235 µg/mL; GCs in cortical B-cell areas of the spleen and lymphatic tissues ([4]; post-mortem histological and immuno-histological evaluation): decrease; Cmax margin: cynomolgus Cmax,ss at NOAEL versus expected human Cmax ([4]; proposed intravenous regimen): 24 fold; plasma concentration at which CD40 occupancy completely prevented recall antibody responses ([5]; at the time of the second KLH vaccination): > 40 µg/mL; response to the third KLH ([5]; once mAb1 was cleared): full memory antibody response; induction of cytokine production by monocyte-derived dendritic cells [6]: does not induce; organ toxicities [7]: did not reveal any significant organ toxicities; thromboembolic events [7]: no evidence of thromboembolic events; inflection point of non-linear serum concentration-time profiles [8]: 10 to 20 µg/mL; CD4+ T cell proliferation [9, 14]: slight not significant increase; CD8+ T cell proliferation [9, 14]: slight not significant increase; CD4+ T cell proliferation ([9]; 10-200 μg/mL, all three conditions): no effects; CD3+ T cell proliferation ([9]; 10-200 μg/mL, priming, recall, priming and recall, 11 days): no reducing effect; CD8+ T cell proliferation ([9]; all tested concentrations): no major effects; effect on platelet aggregation [10]: mild inhibitory effects; induction of platelet aggregation responses [10]: does not induce; EBV control in vitro [11]: does not impair; CD3+ T cell counts [11, 15]: did not had any effect; CD19+ B cell counts [11, 15]: decrease; inflection point in the PK profiles (drop of CD40 saturation) [12]: about 10 μg/mL
